± gives the uncertainty stated by the source.
B1: Apoptosis-associated speck-like protein containing a CARD, residues 114 to 194; numbered along this chain, Q9ULZ3 (parent)
chain: FIDQHRAALIARVTNVEWLLDALYGKVLTDEQYQAVRAEPTNPSKMRKLFSFTPAWNWTCKDLLLQALRESQSYLVEDLER

Variants of: B1
Assay: abundance fitness (aPCA) (normalised: wild type 0, dead -1); higher = more abundant; growth selection in yeast, the domain comes from the species named
Settings: Homo sapiens

First: E80D
Second: E80Y
The abundance fitness of the first is higher: -0.165 ± 0.088 for the first, -0.532 ± 0.15 for the second.

E80R and E80I are within error of each other in abundance fitness: -0.461 ± 0.054 for the first, -0.24 ± 0.31 for the second.

E80C and E80G are within error of each other in abundance fitness: -0.347 ± 0.079 for the first, -0.317 ± 0.053 for the second.

First: E80A
Second: R12A
The abundance fitness of the first is higher: -0.283 ± 0.079 for the first, -0.707 ± 0.092 for the second.

Compared with R12C, R12W is lower in abundance fitness: -0.361 ± 0.15 for the first, -1.18 ± 0.29 for the second.

R12Q and D30N are within error of each other in abundance fitness: -0.152 ± 0.091 for the first, -0.325 ± 0.084 for the second.

First: D30G
Second: D30L
The abundance fitness of the first is lower: -0.545 ± 0.052 for the first, -0.097 ± 0.047 for the second.

Going from D30I to R37L, the abundance fitness rises from -0.309 ± 0.14 to 0.067 ± 0.042.

R37S and R37K are within error of each other in abundance fitness: -0.104 ± 0.06 for the first, -0.111 ± 0.1 for the second.

Going from R37I to R37P, the abundance fitness falls from 0.063 ± 0.11 to -0.792 ± 0.13.

R37E and R37W are within error of each other in abundance fitness: -0.304 ± 0.063 for the first, -0.373 ± 0.059 for the second.

K45G and K45P are within error of each other in abundance fitness: -0.768 ± 0.072 for the first, -0.803 ± 0.15 for the second.

First: K45H
Second: K45M
The abundance fitness of the first is lower: -1.06 ± 0.48 for the first, -0.34 ± 0.13 for the second.

Going from R47Y to R47L, the abundance fitness rises from -0.872 ± 0.31 to -0.319 ± 0.052.

First: R47C
Second: R47W
The abundance fitness of the first is higher: -0.139 ± 0.079 for the first, -0.497 ± 0.066 for the second.

R47V and R47N are within error of each other in abundance fitness: -0.155 ± 0.052 for the first, -0.214 ± 0.17 for the second.

Compared with R47E, R47G is lower in abundance fitness: 0.037 ± 0.081 for the first, -0.62 ± 0.061 for the second.

First: T41V
Second: T41S
The abundance fitness of the first is lower: -0.707 ± 0.087 for the first, -0.199 ± 0.057 for the second.

T41P and T41W are within error of each other in abundance fitness: -0.845 ± 0.15 for the first, -0.653 ± 0.098 for the second.

T41A and T41Y are within error of each other in abundance fitness: -0.52 ± 0.081 for the first, -0.519 ± 0.24 for the second.

T41Q and V16P are within error of each other in abundance fitness: -0.517 ± 0.14 for the first, -0.35 ± 0.068 for the second.

Compared with V16L, V16S is lower in abundance fitness: -0.484 ± 0.078 for the first, -0.846 ± 0.1 for the second.

Going from V16D to V16R, the abundance fitness rises from -0.773 ± 0.11 to -0.573 ± 0.057.

V16H and A67C are within error of each other in abundance fitness: -0.821 ± 0.22 for the first, -0.629 ± 0.13 for the second.

A67R and A67I are within error of each other in abundance fitness: -0.622 ± 0.084 for the first, -0.372 ± 0.19 for the second.

First: Q66W
Second: Q66A
The abundance fitness of the first is lower: -0.801 ± 0.13 for the first, -0.371 ± 0.049 for the second.

Q66S and Q66N are within error of each other in abundance fitness: -0.322 ± 0.066 for the first, -0.529 ± 0.27 for the second.

Going from Q66C to Q66M, the abundance fitness rises from -0.487 ± 0.078 to -0.252 ± 0.11.

First: E77G
Second: E77D
The abundance fitness of the first is lower: -0.481 ± 0.049 for the first, -0.115 ± 0.11 for the second.

Going from A35F to A35L, the abundance fitness rises from -0.84 ± 0.17 to -0.218 ± 0.054.

Going from A35G to A35N, the abundance fitness falls from -0.472 ± 0.061 to -0.851 ± 0.29.

W58V and W58M are within error of each other in abundance fitness: 0.174 ± 0.054 for the first, 0.167 ± 0.075 for the second.

First: S44M
Second: S44I
The abundance fitness of the first is higher: 0.024 ± 0.089 for the first, -0.398 ± 0.33 for the second.

First: S44G
Second: S44Q
The abundance fitness of the first is lower: -0.063 ± 0.042 for the first, 0.061 ± 0.061 for the second.

First: S44T
Second: S44F
The abundance fitness of the first is higher: -0.097 ± 0.066 for the first, -0.842 ± 0.2 for the second.

Going from R69I to R69W, the abundance fitness falls from -0.195 ± 0.13 to -0.679 ± 0.12.

R69A and R69F are within error of each other in abundance fitness: -0.54 ± 0.094 for the first, -0.636 ± 0.27 for the second.

R69T and R69L are within error of each other in abundance fitness: -0.538 ± 0.12 for the first, -0.502 ± 0.071 for the second.

First: R69V
Second: R69G
The abundance fitness of the first is higher: -0.378 ± 0.073 for the first, -0.736 ± 0.082 for the second.

First: A38D
Second: A38T
The abundance fitness of the first is higher: -0.258 ± 0.094 for the first, -0.552 ± 0.11 for the second.

A38F and Q34F are within error of each other in abundance fitness: -0.312 ± 0.11 for the first, -0.433 ± 0.13 for the second.

Q34W and Q34C are within error of each other in abundance fitness: -0.123 ± 0.073 for the first, -0.3 ± 0.11 for the second.

Reference: the Human Domainome abundance scans (Beltran et al. 2025)
